Experimental findings from article PMC1894825 are described below.

What is called Kd is the concentration at which binding is half-saturated. Higher therefore signals lower affinity.

The subject of the data set is Lsr2 (Mycobacterium tuberculosis H37Rv). In words: EMSA. Background: Mobility shift assays separate free from complexed probe on a gel.

In turn, 16S rRNA gene 200-bp amplicon yielded a Kd of 1000 nM. The substance PiniBAC 227-bp amplicon came in with a Kd of 1000 nM.
